Blank lines part the entries; values can stand above or below the compound they belong to.
Assays:
[1] = biological target: T1, EGFR kinase domain attached to lipid vesicles (activated EGFR kinase) (Homo sapiens, UniProt P00533); experiment: Vesicle-based kinase assay: EGFR kinase domain attached to lipid vesicles; type: biochemical; conditions: for inhibition of activity of kinase domain attached to lipid vesicles: result in words
T1 construct: DNA encoding residues 672-998 of human EGFR was cloned into pFAST BAC HT; made in house; host or cells: Sf9 insect cells (baculovirus)
Text: (§1) The wild-type and mutant forms of the EGFR kinase domain were expressed and purified using methods known in the art and described in Zhang et al., (2006). The 60-residue MIG6 peptide was expressed in bacteria as a glutathione S-transferase (GST)-fusion protein, purified and treated with the TEV protease to remove the GST-moiety. The wild-type and Y358A mutant MIG6(segments 1-2) peptides were fused to a Trp DLE leader peptide and expressed as inclusion bodies and purified as described. All other MIG6 peptides were produced using solid phase synthesis. […] The binding affinities between the kinase domain and fluorescein-labeled MIG6 peptides were measured by monitoring the change of fluorescence anisotropy during the titration and fitting the data to a single-site binding model. Kinase assays in solution and on vesicle were performed using methods known in the art and described herein. Cell-based inhibition assays were performed using Cos-7 cells co-transfected with constructs containing full-length EGFR and MIG6.

[2] = biological target: T2, wild-type EGFR kinase domain (Homo sapiens, UniProt P00533); experiment: Fluorescence anisotropy binding titration, wild-type kinase domain; conditions: result in words
T2 construct: DNA encoding residues 672-998 of human EGFR was cloned into pFAST BAC HT; 6-His tag, linker and TEV cleavage site (N, cleaved yes); made in house; host or cells: Sf9 insect cells (baculovirus)
Text: as §1
Fluorescein-labelled 30-residue wild-type, M346L, M346A, F352A and Y358A MIG6 peptides were diluted to final concentrations of 5, 8, 3.1, 3.5 and 2.7 μM in a buffer containing 10 mM Tris, 50 mM NaCl and 2 mM DTT, pH7.5. These peptides in the cuvette were then titrated with the wild-type or mutant forms of the EGFR kinase domain at 20 uC. For the competition assays, the labeled 30-mer wild-type peptide ([…]) and kinase domain ([…]) were mixed and titrated with unlabelled competitor peptides. The fluorescence anisotropy at each titration step was monitored. The I682Q and K799E mutant kinases used in the binding assays contain the N-terminal 63H is tag and linker fragment before the kinase domain, whereas this N-terminal fragment in the wild-type and V924R mutant kinases was removed by Tobacco Etch Virus protease treatment.

[3] = system: cancer cells in colon cancer; conditions: in vitro; cited from earlier work
biliary tract cancer = conditions: in vitro; cited from earlier work
gastric cancer cells = conditions: cited from earlier work
[4] = biological target: T3, EGFR kinase domain V924R mutant (Homo sapiens, UniProt P00533, V948R); experiment: Fluorescence anisotropy binding titration, V924R mutant kinase domain; conditions: result in words
T3 construct: DNA encoding residues 672-998 of human EGFR was cloned into pFAST BAC HT; 6-His tag, linker and TEV cleavage site (N, cleaved yes); made in house; host or cells: Sf9 insect cells (baculovirus)
Text: as §1
(§2) Fluorescein-labelled 30-residue wild-type, M346L, M346A, F352A and Y358A MIG6 peptides were diluted to final concentrations of 5, 8, 3.1, 3.5 and 2.7 μM in a buffer containing 10 mM Tris, 50 mM NaCl and 2 mM DTT, pH7.5. […] The fluorescence anisotropy at each titration step was monitored. […]

[5] = biological target: T4, EGFR kinase domain I682Q mutant (Homo sapiens, UniProt P00533, I706Q); experiment: Fluorescence anisotropy binding titration, I682Q mutant kinase domain; conditions: result in words
T4 construct: DNA encoding residues 672-998 of human EGFR was cloned into pFAST BAC HT; made in house; host or cells: Sf9 insect cells (baculovirus)
Text: as §1, §2

[6] = biological target: T5, EGFR kinase domain L834R mutant (Homo sapiens, UniProt P00533, L858R); experiment: Kinase assay in solution, L834R mutant kinase domain; type: biochemical; conditions: result in words
T5 construct: DNA encoding residues 672-998 of human EGFR was cloned into pFAST BAC HT; made in house; host or cells: Sf9 insect cells (baculovirus)
Experimental: To test the role of segment 2, we produced a longer peptide (residues 336-412, MIG6(segments 1-2)), and analyzed its effect on a variant of the EGFR kinase domain that contains a mutation (L834R) that renders it constitutively active in the absence of concentration on vesicles. MIG6(segments 1-2) inhibits this mutant kinase domain with an IC50 value of ˜200 nM (FIG. 25a). MIG6(segments 1-2) bearing a mutation within segment 1 (Y358A) inhibited L834R much less efficiently (IC50˜5 μM).
(§3) Kinase assays were performed using methods known in the art and described herein. The substrate peptide was kept at 1 mM in all the experiments. The reported rates are the initial velocities normalized by the kinase concentrations. The wild-type kinase concentrations in the vesicle-based and solution-based assays were […] respectively.
(§4) A continuous enzyme-coupled kinase assay was performed to measure the kinase activity of the proteins as described in Barker et al., ((1995) Biochemistry, Vol. 34(54): 14843-51), with modifications, as described herein. The ATP concentration was kept to 0.5 mM.
(§5) The buffer used contained 10 mM MgCl2, 20 mM Tris, and pH 7.5. […] The substrate peptide was derived from the region spanning Y1173 in EGFR ([…]). All proteins used in this assay contained the N-terminal (His)6 tag unless otherwise noted.

[7] = biological target: T4, EGFR kinase domain I682Q mutant; experiment: Kinase assay in solution, I682Q mutant kinase domain (basal activity); type: biochemical; conditions: result in words
Experimental: The EGFR kinase domain has very low activity in solution, but is activated on increasing its local concentration by tethering it to lipid vesicles, which promotes the formation of the asymmetric dimer. […] An EGFR kinase domain bearing an I682Q mutation is not stimulated by concentration at the membrane because it is unable to form the asymmetric dimer. […] Thus, MIG6(segment 1) is only able to inhibit the kinase domain in the context of asymmetric dimer formation.
as §3, §4, §5

lung cancer = conditions: patients with lung cancer; cited from earlier work

Compound: KSLPSYLNGVMPPTQSFAPDPKYVSS (chains of the parent or of the whole protein) [40-mer peptide]
IC50 ([1]; vesicle-based kinase assay, read-out: IC50 for inhibiting the activated EGFR kinase (kinase domain attached to lipid vesicles)): ~10 µM

Compound: F352A: 30-residue MIG6 segment 1 peptide with F352A mutation (SPKSLPSYLNGVMPPTQSAAPDPKYVSSKA; UniProt Q9UJM3 334-363, looked up, variant F352A)
inhibition of activity of kinase domain attached to lipid vesicles [1]: do not inhibit kinase activity significantly
binding to the wild-type EGFR kinase domain [2]: abrogates binding

Compound: COc1cc2ncnc(Nc3ccc(F)c(Cl)c3)c2cc1OCCCN1CCOCC1 [gefitinib]
growth of cancer cells [3]: halt the growth of cancer cells
growth of cancer cells (biliary tract cancer): halt the growth of cancer cells
apoptosis of gastric cancer cells (gastric cancer cells): increase apoptosis

Compound: MIG6(segment 1): 25-residue epitope of MIG6 (residues 337-361) binding the EGFR kinase domain; tested as the 30-residue peptide
binding to the wild-type EGFR kinase domain [2]: micromolar affinity
binding to EGFR kinase domain bearing V924R mutation [4]: does not bind
binding affinity for I682Q mutant kinase domain compared with wild-type [5]: same binding affinity
inhibition of L834R mutant kinase domain [6]: did not inhibit
inhibition of basal activity of I682Q mutant kinase domain in solution [7]: not inhibited

Compound: C#Cc1cccc(Nc2ncnc3cc(OCCOC)c(OCCOC)cc23)c1 [Erlotinib]
survival times (lung cancer): increases survival times by several months

Compound: M346A: 30-residue MIG6 segment 1 peptide with M346A mutation (SPKSLPSYLNGVAPPTQSFAPDPKYVSSKA; UniProt Q9UJM3 334-363, looked up, variant M346A)
inhibition of activity of kinase domain attached to lipid vesicles [1]: do not inhibit kinase activity significantly
binding to the wild-type EGFR kinase domain [2]: abrogates binding

Compound: Y358A: 30-residue MIG6 segment 1 peptide with Y358A mutation (SPKSLPSYLNGVMPPTQSFAPDPKAVSSKA; UniProt Q9UJM3 334-363, looked up, variant Y358A)
inhibition of activity of kinase domain attached to lipid vesicles [1]: do not inhibit kinase activity significantly
binding to the wild-type EGFR kinase domain [2]: abrogates binding

binding to EGFR kinase domain bearing V924R mutation [4]: abolishes peptide binding
Compound: 30-residue fluorescein-labelled MIG6 peptide: fluorescein-labelled MIG6 peptide, residues 334-363, spanning the entire binding epitope of segment 1

Reference: US20100323957A1, “NOVEL ASSAY FOR INHIBITORS OF EGFR” (THE REGENTS OF THE UNIVERSITY OF CALIFORNIA THE OFFICE OF …, priority 2007, published 2010)
